Reference: doi:10.1101/2020.09.17.302455

Target: human plasma fibronectin (human)
Experiment: ELISA

B1: bone morphogenetic protein 2 (ligand)
chain: QAKHKQRKRLKSSCKRHPLYVDFSDVGWNDWIVAPPGYHAFYCHGECPFPLADHLNSTNHAIVQTLVNSVNSKIPKACCVPTELSAISMLYLDENEKVVLKNYQDMVVEGCGCR
B1 was tested, and the percent of BMP2 absorbed was 70 to 80%.
